In paper PMC4166925:

Legend:
[1] = target: T1, PmTbr T-box (Patiria miniata) (UniProt A0A075Q982)
T1 sequence: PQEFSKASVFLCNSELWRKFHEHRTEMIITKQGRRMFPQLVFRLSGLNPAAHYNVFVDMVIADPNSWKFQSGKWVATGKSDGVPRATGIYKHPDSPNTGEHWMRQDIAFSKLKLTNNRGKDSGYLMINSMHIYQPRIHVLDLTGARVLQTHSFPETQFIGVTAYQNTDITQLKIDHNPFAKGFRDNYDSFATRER

[2] = target: T2, SpTbr T-box (Strongylocentrotus purpuratus) (UniProt A0A7M7RD59)
T2 sequence: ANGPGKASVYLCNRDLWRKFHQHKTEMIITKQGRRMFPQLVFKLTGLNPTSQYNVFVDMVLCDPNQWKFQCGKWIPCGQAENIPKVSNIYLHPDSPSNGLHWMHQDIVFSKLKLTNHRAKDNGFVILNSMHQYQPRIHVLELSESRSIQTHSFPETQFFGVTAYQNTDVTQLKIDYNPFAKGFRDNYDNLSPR

[3] = tested on: PmTbr DNA-binding domain (T-box) (Patiria miniata); test: SPR (steady state); settings: SPR running buffer 50 mM Mops (pH not given; protein buffer 20 mM Mops pH 7.5), 150 mM NaCl, 1 mM DTT, 0.01% P20, 20 °C, 30 µl/min; streptavidin-coated CM5 …
[4] = tested on: SpTbr DNA-binding domain (T-box) (Strongylocentrotus purpuratus); test: SPR (steady state); settings: SPR running buffer 50 mM Mops (pH not given; protein buffer 20 mM Mops pH 7.5), 150 mM NaCl, 1 mM DTT, 0.01% P20, 20 °C, 30 µl/min; streptavidin-coated CM5 …

## AACACCTC (double strand) [8-mer AACACCTC]
[1]
  binding signal (PBM E-score (-0.5 to 0.5)): 0.491

## AAGGTGTC (double strand) [8-mer AAGGTGTC]
[2]
  binding signal (PBM E-score (-0.5 to 0.5)): 0.487

## AAGTGTGA (double strand) [8-mer AAGTGTGA]
[2]
  binding signal (PBM E-score (-0.5 to 0.5)): 0.488

## ACACCTCC (double strand) [8-mer ACACCTCC]
[1]
  binding signal (PBM E-score (-0.5 to 0.5)): 0.49

## ACACCTCG (double strand) [8-mer ACACCTCG]
[1]
  binding signal (PBM E-score (-0.5 to 0.5)): 0.49

## AGGTGCGA (double strand) [8-mer AGGTGCGA]
[2]
  binding signal (PBM E-score (-0.5 to 0.5)): 0.496
[1]
  binding signal (PBM E-score (-0.5 to 0.5)): 0.497

## AGGTGCTA (double strand) [8-mer AGGTGCTA]
[1]
  binding signal (PBM E-score (-0.5 to 0.5)): 0.491

## AGGTGTCA (double strand) [8-mer AGGTGTCA]
[2]
  binding signal (PBM E-score (-0.5 to 0.5)): 0.494
[1]
  binding signal (PBM E-score (-0.5 to 0.5)): 0.495

## AGGTGTCG (double strand) [8-mer AGGTGTCG]
[1]
  binding signal (PBM E-score (-0.5 to 0.5)): 0.492

## AGGTGTGA (double strand) [8-mer AGGTGTGA]
[2]
  binding signal (PBM E-score (-0.5 to 0.5)): 0.498
[1]
  binding signal (PBM E-score (-0.5 to 0.5)): 0.499

## AGGTGTTA (double strand) [8-mer AGGTGTTA]
[2]
  binding signal (PBM E-score (-0.5 to 0.5)): 0.494
[1]
  binding signal (PBM E-score (-0.5 to 0.5)): 0.496

## AGTGTGAA (double strand) [8-mer AGTGTGAA]
[2]
  binding signal (PBM E-score (-0.5 to 0.5)): 0.489

## ATCACACC (double strand) [8-mer ATCACACC]
[2]
  binding signal (PBM E-score (-0.5 to 0.5)): 0.488

## CACACCTC (double strand) [8-mer CACACCTC]
[2]
  binding signal (PBM E-score (-0.5 to 0.5)): 0.49
[1]
  binding signal (PBM E-score (-0.5 to 0.5)): 0.49

## CTCACACC (double strand) [8-mer CTCACACC]
[2]
  binding signal (PBM E-score (-0.5 to 0.5)): 0.494
[1]
  binding signal (PBM E-score (-0.5 to 0.5)): 0.491

## CTTTAGGTGACAAACGGTTTTCCGTTTGTCACCTAAAG [PmTbr Secondary Site Hairpin]
[3]
  Kd: 446 nM
[4]
  Kd: 989 nM

## CTTTAGGTGTCGAACGGTTTTCCGTTCGACACCTAAAG [MmEomes Secondary Hairpin]
[3]
  Kd: 732 nM
[4]
  Kd: 882 nM

## CTTTAGGTGTGAAACGGTTTTCCGTTTCACACCTAAAG [Primary Tbr Site Hairpin]
[3]
  Kd: 107 nM
[4]
  Kd: 137 nM

## GACACCTC (double strand) [8-mer GACACCTC]
[1]
  binding signal (PBM E-score (-0.5 to 0.5)): 0.49

## GGGTGTGA (double strand) [8-mer GGGTGTGA]
[2]
  binding signal (PBM E-score (-0.5 to 0.5)): 0.493
[1]
  binding signal (PBM E-score (-0.5 to 0.5)): 0.492

## GGTGCGAA (double strand) [8-mer GGTGCGAA]
[2]
  binding signal (PBM E-score (-0.5 to 0.5)): 0.487

## GGTGTGAA (double strand) [8-mer GGTGTGAA]
[2]
  binding signal (PBM E-score (-0.5 to 0.5)): 0.497
[1]
  binding signal (PBM E-score (-0.5 to 0.5)): 0.496

## GTGTGAAA (double strand) [8-mer GTGTGAAA]
[2]
  binding signal (PBM E-score (-0.5 to 0.5)): 0.49
[1]
  binding signal (PBM E-score (-0.5 to 0.5)): 0.49

## GTGTGAAC (double strand) [8-mer GTGTGAAC]
[2]
  binding signal (PBM E-score (-0.5 to 0.5)): 0.493
